Source: patent US20170258835A1 (University of Pennsylvania, published 2017)

B1: C2177.CD19 bi-specific antibody (bispecific antibody)
chain: DIVLTQSPASLAVSLGQRATISCKASQSVDYAGDSYMNWYQQKPGQPPKLLIYAASNLESGIPARFSGSGSGTDFTLNIHPVEEEDAATYYCQQSNEDPYTFGGGTKLEIKGGGGSGGGGSGGGGSQVQLQQSGPELVKPGASVKISCKASGYAFSSSWMNWVKQRPGKGLEWIGRIYPGDGDTNYNGKFKGKATLTADKSSSTAYMQLSSLTSEDSAVYFCARSDYYGDYGFAYWGQGTLVTVSAGGGGSDIQMTQTTSSLSASLGDRVTISCRASQDISKYLNWYQQKPDGTVKLLIYHTSRLHSGVPSRFSGSGSGTDYSLTISNLEQEDIATYFCQQGNTLPYTFGGGTKLEITGGGGSGGGGSGGGGSEVKLQESGPGLVAPSQSLSVTCTVSGVSLPDYGVSWIRQPPRKGLEWLGVIWGSETTYYNSALKSRLTIIKDNSKSQVFLKMNSLQTDDTAIYYCAKHYYYGGSYAMDYWGQGTSVTVSS
notes: anti-CD27 (C2177) x anti-CD19; also called aCD27-aCD19
B2: M708.CD19 bi-specific antibody (bispecific antibody)
chain: DIQMTQSPSSLSASVGDRVTITCRASKSVSTSGYSFMHWYQQKPGKAPKLLIYVGSRLDYGVPSRFSGSGSGTDFTLTISSLQPEDFATYYCQHSRELPWTFGQGTKVEIKGGGGSGGGGSGGGGSEVQLLESGGGLVQPGGSLRLSCAASGFTFSSYTMSWVRQAPGKGLEWVSVIDHGGGSTHYPDSVKGRFTISRDNSKNTLYLQMNSLRAEDTAVYYCARHRGNPFDYWGQGTLVTVSSGGGGSDIQMTQTTSSLSASLGDRVTISCRASQDISKYLNWYQQKPDGTVKLLIYHTSRLHSGVPSRFSGSGSGTDYSLTISNLEQEDIATYFCQQGNTLPYTFGGGTKLEITGGGGSGGGGSGGGGSEVKLQESGPGLVAPSQSLSVTCTVSGVSLPDYGVSWIRQPPRKGLEWLGVIWGSETTYYNSALKSRLTIIKDNSKSQVFLKMNSLQTDDTAIYYCAKHYYYGGSYAMDYWGQGTSVTVSS
notes: anti-CD27 (M708) x anti-CD19; also called aCD27-aCD19
B3: M709.CD19 bi-specific antibody (bispecific antibody)
chain: DIVMTQSPDSLAVSLGERATINCKASQSVDYAGESFMNWYQQKPGQPPKLLIYAASNLESGVPDRFSGSGSGTDFTLTISSLQAEDVAVYYCQQSNEDPYTFGQGTKLEIKGGGGSGGGGSGGGGSEVQLVQSGAEVKKPGESLKISCKGSGYAFSSSWMNWVRQMPGKGLEWMGRIYAGDADTAYSPSFQGQVTISADKSISTAYLQWSSLKASDTAMYYCARSDYYGDYGFAYWGQGTLVTVSSGGGGSDIQMTQTTSSLSASLGDRVTISCRASQDISKYLNWYQQKPDGTVKLLIYHTSRLHSGVPSRFSGSGSGTDYSLTISNLEQEDIATYFCQQGNTLPYTFGGGTKLEITGGGGSGGGGSGGGGSEVKLQESGPGLVAPSQSLSVTCTVSGVSLPDYGVSWIRQPPRKGLEWLGVIWGSETTYYNSALKSRLTIIKDNSKSQVFLKMNSLQTDDTAIYYCAKHYYYGGSYAMDYWGQGTSVTVSS
notes: anti-CD27 (M709) x anti-CD19; also called aCD27-aCD19

What follows are binders tested against T1, CD27-Z CLEAR (UniProt P26842 20-260; P20963 52-163) (assay: flow cytometry, T cells co-electroporated with CD27-Z RNA and bi-specific antibody RNA, stained with anti-mouse IgG Fab (streptavidin APC) and anti-CD27 FITC; controls: CD27Z alone Q2 2.52 and Q3 9.39, NO EP Q2 0.089 and Q3 1.92).
T1 construct: also called CD27 CLEAR
T1 sequence (P26842 other isoform, or with tags, fused parts or gaps): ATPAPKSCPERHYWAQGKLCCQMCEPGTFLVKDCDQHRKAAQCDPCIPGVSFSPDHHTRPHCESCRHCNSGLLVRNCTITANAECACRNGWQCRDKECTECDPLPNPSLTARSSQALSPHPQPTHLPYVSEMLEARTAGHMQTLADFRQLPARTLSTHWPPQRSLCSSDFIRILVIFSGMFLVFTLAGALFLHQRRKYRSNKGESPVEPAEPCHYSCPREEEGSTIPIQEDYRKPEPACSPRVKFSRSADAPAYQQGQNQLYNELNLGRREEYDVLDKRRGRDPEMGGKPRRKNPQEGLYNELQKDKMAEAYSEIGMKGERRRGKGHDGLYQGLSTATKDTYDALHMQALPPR

Q: B1 was tested. Which “percent of cells CD27+ mIgG Fab+ (Q2)” value did it give?
A: 13.8

Q: And the “percent of cells CD27- mIgG Fab+ (Q3)” value?
A: 84.2

Q: How did the “percent of cells CD27+ mIgG Fab+ (Q2)” value turn out when B2 was run?
A: 7.58

Q: And the “percent of cells CD27- mIgG Fab+ (Q3)” value?
A: 18.8

Q: Which “percent of cells CD27+ mIgG Fab+ (Q2)” value does the source give for B3 here?
A: 0.35

Q: And the “percent of cells CD27- mIgG Fab+ (Q3)” value?
A: 52.2
